Experimental data taken from paper doi:10.1101/303123 (bioRxiv, 2018).

T1: XcpX (29-313), soluble form of the minor pseudopilin XcpX (P. aeruginosa, UniProt Q00518 29-313)
T1 sequence (looked up): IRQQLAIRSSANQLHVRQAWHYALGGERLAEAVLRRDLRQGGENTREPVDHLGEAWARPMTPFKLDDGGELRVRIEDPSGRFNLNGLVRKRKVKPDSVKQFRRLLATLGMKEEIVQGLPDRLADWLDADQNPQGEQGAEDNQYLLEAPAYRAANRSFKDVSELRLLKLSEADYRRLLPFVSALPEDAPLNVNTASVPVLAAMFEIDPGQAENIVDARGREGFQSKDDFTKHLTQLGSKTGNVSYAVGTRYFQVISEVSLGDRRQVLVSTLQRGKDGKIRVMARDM

T2: XcpVW binary complex (XcpV (28-129) with XcpW (28-203)) (P. aeruginosa, UniProt Q00516 28-129; Q00517 28-203)
T2 sequence (looked up) 1: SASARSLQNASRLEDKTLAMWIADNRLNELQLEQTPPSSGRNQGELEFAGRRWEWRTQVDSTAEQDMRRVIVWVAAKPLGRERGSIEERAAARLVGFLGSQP
T2 sequence (looked up) 2: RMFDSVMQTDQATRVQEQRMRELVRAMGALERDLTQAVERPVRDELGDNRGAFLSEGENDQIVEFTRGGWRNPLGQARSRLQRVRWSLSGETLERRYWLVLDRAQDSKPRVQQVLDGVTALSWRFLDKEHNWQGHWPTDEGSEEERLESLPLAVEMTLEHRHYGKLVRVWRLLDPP

B1: XcpV (28-129), soluble form of the minor pseudopilin XcpV (domain or fragment, P. aeruginosa, UniProt Q00516 28-129, looked up)
chain: SASARSLQNASRLEDKTLAMWIADNRLNELQLEQTPPSSGRNQGELEFAGRRWEWRTQVDSTAEQDMRRVIVWVAAKPLGRERGSIEERAAARLVGFLGSQP
B2: XcpU (29-172), soluble form of the minor pseudopilin XcpU (domain or fragment, P. aeruginosa, UniProt Q00515 29-172, looked up)
chain: STGFASTSRELDSEAERLAGLIGVLTDEAVLDNREYGLRLERDAYQVLRYDEAKARWLPVARDSHRLPEWAELTFELDGQPLVLAGSKGEKEQKKGTDQPQLLILSSGELSPFRLRLAERGPEGRALSLSSDGFRLPRVEVARR

Columns and labels:
[1] = target: T1, XcpX (29-313), soluble form of the …; experiment: crystal structure
[2] = target: T2, XcpVW binary complex (XcpV (28-129) …); experiment: SEC + AUC

Row | Binder | binding result [1] | binding result [2]
1 | B1 | binds | 
2 | B2 |  | binds
